T1: QKI (Quaking) (UniProt Q96PU8-9 Q96PU8-9:1-319)
T1 sequence: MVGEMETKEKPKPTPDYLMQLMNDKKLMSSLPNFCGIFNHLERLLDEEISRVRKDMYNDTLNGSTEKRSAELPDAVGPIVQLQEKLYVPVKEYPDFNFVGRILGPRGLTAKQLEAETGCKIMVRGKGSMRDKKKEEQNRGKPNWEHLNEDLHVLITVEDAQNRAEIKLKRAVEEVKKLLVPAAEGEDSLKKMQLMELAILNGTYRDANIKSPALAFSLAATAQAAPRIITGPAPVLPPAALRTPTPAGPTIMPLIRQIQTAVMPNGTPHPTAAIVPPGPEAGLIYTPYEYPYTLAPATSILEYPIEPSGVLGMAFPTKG


Experiments:
Conditions in all cases: tags: N-terminal His6 (pDEST17, E. coli); label: 32P
QKI (Quaking) [1] = target: T1, QKI (Quaking); test: EMSA; binding unaffected by 4SU; 330 mM KCl, 10 mM MgCl2, tRNA
Method: (§1) Radiolabeled RNA (1 nM) was incubated with recombinant His6-QKI protein at various concentrations and 100 ng tRNA in 20 μl of 20 mM HEPES-KOH, pH 7.4, 330 mM KCl, 10 mM MgCl2, 0.1 mM EDTA and 0.01% IGEPAL CA630 (Sigma). After addition of 6 μl loading dye (40% glycerol, bromophenol blue in binding buffer), the solution was loaded onto a native 10% acrylamide gel containing 0.5×TBE, running at 200 V for 2 h at room temperature, using 0.5×TBE as running buffer. The protein-bound RNA and the free RNA were quantified using a phosphorimager.

QKI (Quaking) [2] = target: T1, QKI (Quaking); test: EMSA; 330 mM KCl, 10 mM MgCl2, pH 7.4, 100 ng tRNA
Method: as §1

QKI (Quaking) [3] = target: T1, QKI (Quaking); test: EMSA; 4SU position has no significant effect on affinity; 330 mM KCl, 10 mM MgCl2, tRNA
Method: as §1

Binder	binding result (QKI (Quaking) [3])	further results
GUAUGCCAUUAACAAAUUCAUUAACAA (ssRNA, 4-thiouridine at position 10 (position 3 of recognition element)) [QKI oligo 4SU at U10]	–	binding result (QKI (Quaking) [1]): binds
GUAUGCCAUUAACAAAUUCAUUAACAA (ssRNA) [HOXD13 3'UTR QKI-site oligoribonucleotide]	–	binding result (QKI (Quaking) [2]): binds
GUAUGCCAUUAACAAAUUCAUUAACAA (ssRNA, 4-thiouridine at position 2) [QKI oligo 4SU at U2]	binds	–
GUAUGCCAUUAACAAAUUCAUUAACAA (ssRNA, 4-thiouridine at position 4) [QKI oligo 4SU at U4]	binds	–
